Among the data in publication doi:10.1101/2019.12.15.877159 are stoichiometry N and percent of dimers values, retold here.

Assay in all cases: non-reducing SDS-PAGE and western blot
(Immunoblotting shows a protein as a band on a membrane.)

Experiment [1] has as its target transmembrane peptide of sDscamα (Mesobuthus martensii).
In experiment [2] the target is transmembrane peptide of sDscamβ5 (Mesobuthus martensii).
Experiment [3] has as its target transmembrane peptide of sDscamβ6 (Mesobuthus martensii).
Experiment [4] deals with transmembrane peptide of sDscamβ4 (Mesobuthus martensii).
The target in experiment [5] is transmembrane peptide of sDscamβ2 (Mesobuthus martensii).
Experiment [6] concerns the target transmembrane peptide of sDscamβ3 (Mesobuthus martensii).

The term stoichiometry N denotes the number of molecules, sites or subunits per partner or assembly. As to “transmembrane peptide of sDscamα (domain or fragment)”, the stoichiometry N in experiment [1] came to 2. For the substance “transmembrane peptide of sDscamβ5 (domain or fragment)”, in experiment [2], the percent of dimers was less than 10% and the stoichiometry N was 2. In turn, “transmembrane peptide of sDscamβ6 (domain or fragment)” yielded a stoichiometry N in experiment [3] of 2. In experiment [4], “transmembrane peptide of sDscamβ4 (domain or fragment)” came in with a percent of dimers of less than 10% and a stoichiometry N of 2.

Substance “transmembrane peptide of sDscamβ2 (domain or fragment)” registered a stoichiometry N in experiment [5] of 2. The substance “transmembrane peptide of sDscamβ3 (domain or fragment)” registered a stoichiometry N in experiment [6] of 2.
